± gives the standard deviation of the averaged measurements.
Each sequence was assayed on Saccharomyces cerevisiae (assay: protein stability index of tFT-peptide fusion (C-terminal peptide) (PSI (0-1 scale)); higher = more stable (slower turnover)). Conditions: genetic background: das1 deletion; temperature: 30 C.
Protocol: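 MPS profiling in S. cerevisiae of the tFT-X12 degron library: putative degron peptides plus stable controls, 12 aa, fused to the C-terminus of a sfGFP-mCherry timer. Cells are FACS-sorted into 8 mCherry/sfGFP bins and deep-sequenced. PSI runs from 0 (unstable) to 1 (stable). Backgrounds are wild type, das1Δ and doa10Δ at 30 °C, and wild type, das1Δ, cdc34-1 and cdc53-1 at 37 °C; 2-3 technical replicates each.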
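Note: PSI is a weighted mean of sequencing reads over stability bins, variants kept only with over 10 reads, mCherry proximal and sfGFP distal, peptide attached via GGGS linker.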

First: LAGSSSIVVVFG
Second: LAGVVWVVWCVG
The protein stability index of the first is higher: 0.299 ± 0.038 for the first, 0.195 ± 0.031 for the second.

Going from LALTRAAITHFF to LASLSRPFRAKF, the protein stability index rises from 0.652 ± 0.017 to 0.843 ± 0.011.

First: LCFLVLLSLLLL
Second: LCHILAIIRRGA
The protein stability index of the first is lower: 0.464 ± 0.029 for the first, 0.596 ± 0.037 for the second.

Compared with LCLRCQCIGTLS, LCSLSIFVLFSC is lower in protein stability index: 0.45 ± 0.023 for the first, 0.209 ± 0.036 for the second.

First: LCSVVIFCLVWG
Second: LCVWRRAIVWVG
The protein stability index of the first is lower: 0.198 ± 0.03 for the first, 0.352 ± 0.025 for the second.

Compared with LFDYEAGEVMGG, LFFFLVWSLSVF is lower in protein stability index: 0.661 ± 0.023 for the first, 0.0353 ± 0.011 for the second.

LFFFVCYLATVK and LFGFYFVRCLVW are within error of each other in protein stability index: 0.23 ± 0.032 for the first, 0.178 ± 0.022 for the second.

LFHFPSWIFCLL and LFIRSFLFFSHF are within error of each other in protein stability index: 0.55 ± 0.036 for the first, 0.498 ± 0.019 for the second.

Going from LFLTSFRFLRLF to LFPLLCLLLPSL, the protein stability index rises from 0.509 ± 0.0094 to 0.548 ± 0.025.

Compared with LFTVCMIIQMVH, LFVGLVSFRIGA is higher in protein stability index: 0.145 ± 0.036 for the first, 0.428 ± 0.029 for the second.

First: LGCRFCFVGVVG
Second: LGPLGWLVLLLV
The protein stability index of the first is higher: 0.429 ± 0.021 for the first, 0.353 ± 0.022 for the second.

Going from LGWFVDFVFVVW to LHASCVYTILLV, the protein stability index rises from 0.27 ± 0.03 to 0.351 ± 0.03.

Going from LIARYTFLFCLC to LLCGVLFFFWVV, the protein stability index falls from 0.531 ± 0.015 to 0.383 ± 0.03.

First: LLFSVLLLGVGF
Second: LLGSRFVLIRSL
The protein stability index of the first is lower: 0.334 ± 0.023 for the first, 0.462 ± 0.026 for the second.

First: LLLRSSRLRVLS
Second: LLLRWWLYSCCP
The protein stability index of the first is higher: 0.607 ± 0.013 for the first, 0.324 ± 0.032 for the second.

Compared with LLPFSLLDLLLC, LLQCRTGLASGR is higher in protein stability index: 0.58 ± 0.028 for the first, 0.649 ± 0.013 for the second.

First: LLSGLVFVFVLG
Second: LLSILSSLPLSR
The protein stability index of the first is lower: 0.238 ± 0.04 for the first, 0.585 ± 0.043 for the second.

Compared with LLVFSLLRPFLF, LLVLRQYFFFFV is lower in protein stability index: 0.567 ± 0.039 for the first, 0.468 ± 0.035 for the second.

First: LPCPPSPASLPR
Second: LPHIFFCLFSLL
The protein stability index of the first is lower: 0.447 ± 0.013 for the first, 0.562 ± 0.05 for the second.

First: LPPFRFSLPFRR
Second: LPWLLLISFSYR
The protein stability index of the first is higher: 0.671 ± 0.013 for the first, 0.202 ± 0.029 for the second.

First: LQSYIFSVRGIS
Second: LRMMLLVTIILE
The protein stability index of the first is higher: 0.601 ± 0.029 for the first, 0.107 ± 0.028 for the second.

Compared with LRVGVRSWGGKW, LSFYLRAVRASL is higher in protein stability index: 0.4299 ± 0.0014 for the first, 0.629 ± 0.015 for the second.

Compared with LSLFPFLPSPCP, LSRSAGVGVWVG is lower in protein stability index: 0.671 ± 0.009 for the first, 0.647 ± 0.0099 for the second.

Going from LSTFFIFLRILR to LVFLYFHFCCGF, the protein stability index rises from 0.324 ± 0.04 to 0.394 ± 0.026.

LVFPPVPSLVLC and LVFPRWACSLVF are within error of each other in protein stability index: 0.277 ± 0.036 for the first, 0.307 ± 0.025 for the second.

First: LVFRVSLVEVVL
Second: LVGLLASWLRFN
The protein stability index of the first is lower: 0.232 ± 0.028 for the first, 0.672 ± 0.0051 for the second.

Going from LVLALTPFLHSF to LVLSVWFFNCTS, the protein stability index falls from 0.638 ± 0.021 to 0.422 ± 0.032.

LVRFYGPLPPFP and LVRGGLTNLFLF are within error of each other in protein stability index: 0.664 ± 0.029 for the first, 0.644 ± 0.024 for the second.

First: LWFFVVVVVRWV
Second: LWRFFFVAFVGI
The protein stability index of the first is lower: 0.149 ± 0.032 for the first, 0.377 ± 0.034 for the second.

Compared with MALAVRVVFCGA, MALAVRVVICGA is lower in protein stability index: 0.275 ± 0.032 for the first, 0.134 ± 0.015 for the second.

MLCVFVFIWYFV and MLFALLTIVFLG are within error of each other in protein stability index: 0.254 ± 0.011 for the first, 0.242 ± 0.024 for the second.

MLTYVVRSLVGY and MWFVGLCLHFFM are within error of each other in protein stability index: 0.37 ± 0.045 for the first, 0.409 ± 0.024 for the second.

First: NAGSHHAAVKLG
Second: NCMGLLMPLLIT
The protein stability index of the first is higher: 0.6411 ± 0.0016 for the first, 0.378 ± 0.039 for the second.

Going from NFFLLFFFFLSF to PAMPTEPKSSSG, the protein stability index rises from 0.398 ± 0.045 to 0.629 ± 0.015.

Compared with PFFSSLKYRRDH, PFFVFSFLFLLH is lower in protein stability index: 0.6675 ± 0.0032 for the first, 0.192 ± 0.024 for the second.

Compared with PHRLSRFILRLL, PLCLFPPLLVFL is lower in protein stability index: 0.65 ± 0.033 for the first, 0.411 ± 0.024 for the second.

First: PLFLLTFAITLV
Second: PLLLLLPSLLLV
The protein stability index of the first is lower: 0.166 ± 0.024 for the first, 0.3 ± 0.029 for the second.

PLRRPSWVVLSS and PPIPTPSPIPLH are within error of each other in protein stability index: 0.638 ± 0.014 for the first, 0.653 ± 0.017 for the second.

PPPHPPPATFLS and PPPPPPPSSSSL are within error of each other in protein stability index: 0.676 ± 0.02 for the first, 0.672 ± 0.017 for the second.

Same assay, conditions: genetic background: das1 deletion; temperature: 37 C

First: LAGSSSIVVVFG
Second: LAGVVWVVWCVG
The protein stability index of the first is higher: 0.527 ± 0.0056 for the first, 0.385 ± 0.0088 for the second.

Going from LALTRAAITHFF to LASLSRPFRAKF, the protein stability index rises from 0.743 ± 0.039 to 0.914 ± 0.013.

Going from LCFLVLLSLLLL to LCHILAIIRRGA, the protein stability index rises from 0.5486 ± 0.0041 to 0.687 ± 0.013.

Going from LCLRCQCIGTLS to LCSLSIFVLFSC, the protein stability index falls from 0.557 ± 0.012 to 0.381 ± 0.0064.

Going from LCSVVIFCLVWG to LCVWRRAIVWVG, the protein stability index rises from 0.343 ± 0.044 to 0.512 ± 0.007.

First: LFDYEAGEVMGG
Second: LFFFLVWSLSVF
The protein stability index of the first is higher: 0.783 ± 0.017 for the first, 0.0635 ± 0.02 for the second.

Compared with LFFFVCYLATVK, LFGFYFVRCLVW is lower in protein stability index: 0.416 ± 0.017 for the first, 0.263 ± 0.012 for the second.

Going from LFHFPSWIFCLL to LFIRSFLFFSHF, the protein stability index falls from 0.688 ± 0.015 to 0.581 ± 0.016.

First: LFLTSFRFLRLF
Second: LFPLLCLLLPSL
The protein stability index of the first is lower: 0.597 ± 0.03 for the first, 0.638 ± 0.0096 for the second.

Compared with LFTVCMIIQMVH, LFVGLVSFRIGA is higher in protein stability index: 0.273 ± 0.02 for the first, 0.601 ± 0.0068 for the second.

Compared with LGCRFCFVGVVG, LGPLGWLVLLLV is lower in protein stability index: 0.634 ± 0.026 for the first, 0.483 ± 0.0058 for the second.

First: LGWFVDFVFVVW
Second: LHASCVYTILLV
The protein stability index of the first is lower: 0.458 ± 0.012 for the first, 0.499 ± 0.0092 for the second.

Going from LIARYTFLFCLC to LLCGVLFFFWVV, the protein stability index falls from 0.628 ± 0.021 to 0.525 ± 0.017.

First: LLFSVLLLGVGF
Second: LLGSRFVLIRSL
The protein stability index of the first is lower: 0.5038 ± 0.0037 for the first, 0.621 ± 0.012 for the second.

Compared with LLLRSSRLRVLS, LLLRWWLYSCCP is lower in protein stability index: 0.6521 ± 0.005 for the first, 0.4667 ± 0.0026 for the second.

Going from LLPFSLLDLLLC to LLQCRTGLASGR, the protein stability index rises from 0.681 ± 0.016 to 0.748 ± 0.0087.

Compared with LLSGLVFVFVLG, LLSILSSLPLSR is higher in protein stability index: 0.445 ± 0.0072 for the first, 0.7073 ± 0.0042 for the second.

Going from LLVFSLLRPFLF to LLVLRQYFFFFV, the protein stability index falls from 0.6602 ± 0.0048 to 0.606 ± 0.017.

LPCPPSPASLPR and LPHIFFCLFSLL are within error of each other in protein stability index: 0.634 ± 0.0069 for the first, 0.657 ± 0.066 for the second.

Going from LPPFRFSLPFRR to LPWLLLISFSYR, the protein stability index falls from 0.705 ± 0.023 to 0.38 ± 0.0051.

Going from LQSYIFSVRGIS to LRMMLLVTIILE, the protein stability index falls from 0.707 ± 0.029 to 0.216 ± 0.0072.

First: LRVGVRSWGGKW
Second: LSFYLRAVRASL
The protein stability index of the first is lower: 0.4369 ± 0.002 for the first, 0.7101 ± 0.0032 for the second.

LSLFPFLPSPCP and LSRSAGVGVWVG are within error of each other in protein stability index: 0.752 ± 0.035 for the first, 0.731 ± 0.013 for the second.

Going from LSTFFIFLRILR to LVFLYFHFCCGF, the protein stability index rises from 0.4436 ± 0.0022 to 0.543 ± 0.024.

Compared with LVFPPVPSLVLC, LVFPRWACSLVF is higher in protein stability index: 0.376 ± 0.013 for the first, 0.426 ± 0.0075 for the second.

First: LVFRVSLVEVVL
Second: LVGLLASWLRFN
The protein stability index of the first is lower: 0.36 ± 0.01 for the first, 0.773 ± 0.017 for the second.

First: LVLALTPFLHSF
Second: LVLSVWFFNCTS
The protein stability index of the first is higher: 0.727 ± 0.012 for the first, 0.573 ± 0.022 for the second.

Compared with LVRFYGPLPPFP, LVRGGLTNLFLF is higher in protein stability index: 0.757 ± 0.011 for the first, 0.7829 ± 0.0056 for the second.

First: LWFFVVVVVRWV
Second: LWRFFFVAFVGI
The protein stability index of the first is lower: 0.2611 ± 0.0017 for the first, 0.55 ± 0.0084 for the second.

Going from MALAVRVVFCGA to MALAVRVVICGA, the protein stability index falls from 0.436 ± 0.015 to 0.172 ± 0.011.

Compared with MLCVFVFIWYFV, MLFALLTIVFLG is higher in protein stability index: 0.359 ± 0.0048 for the first, 0.388 ± 0.0085 for the second.

MLTYVVRSLVGY and MWFVGLCLHFFM are within error of each other in protein stability index: 0.527 ± 0.011 for the first, 0.546 ± 0.035 for the second.

Compared with NAGSHHAAVKLG, NCMGLLMPLLIT is lower in protein stability index: 0.7163 ± 0.001 for the first, 0.504 ± 0.019 for the second.

First: NFFLLFFFFLSF
Second: PAMPTEPKSSSG
The protein stability index of the first is lower: 0.535 ± 0.0082 for the first, 0.716 ± 0.034 for the second.

Going from PFFSSLKYRRDH to PFFVFSFLFLLH, the protein stability index falls from 0.77 ± 0.02 to 0.313 ± 0.035.

Going from PHRLSRFILRLL to PLCLFPPLLVFL, the protein stability index falls from 0.703 ± 0.013 to 0.556 ± 0.021.

Going from PLFLLTFAITLV to PLLLLLPSLLLV, the protein stability index rises from 0.277 ± 0.018 to 0.439 ± 0.021.

Going from PLRRPSWVVLSS to PPIPTPSPIPLH, the protein stability index falls from 0.727 ± 0.0099 to 0.695 ± 0.021.

PPPHPPPATFLS and PPPPPPPSSSSL are within error of each other in protein stability index: 0.729 ± 0.022 for the first, 0.722 ± 0.011 for the second.
